One assay addresses T1, CgnC (Chondromyces crocatus CM c5).
T1 chain: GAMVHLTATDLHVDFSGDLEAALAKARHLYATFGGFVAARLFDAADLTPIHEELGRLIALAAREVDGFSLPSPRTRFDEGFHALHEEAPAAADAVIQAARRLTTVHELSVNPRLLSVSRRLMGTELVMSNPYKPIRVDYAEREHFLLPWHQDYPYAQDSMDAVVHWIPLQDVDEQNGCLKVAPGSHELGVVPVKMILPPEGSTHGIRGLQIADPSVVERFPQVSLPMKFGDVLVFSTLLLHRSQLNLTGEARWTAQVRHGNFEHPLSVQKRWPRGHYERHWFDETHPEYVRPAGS
In words: MST; CgnA at constant high concentration.

Assay [1] addresses T2, CgnB in the presence of CgnA (400 µM) (Chondromyces crocatus CM c5).
T2 chain: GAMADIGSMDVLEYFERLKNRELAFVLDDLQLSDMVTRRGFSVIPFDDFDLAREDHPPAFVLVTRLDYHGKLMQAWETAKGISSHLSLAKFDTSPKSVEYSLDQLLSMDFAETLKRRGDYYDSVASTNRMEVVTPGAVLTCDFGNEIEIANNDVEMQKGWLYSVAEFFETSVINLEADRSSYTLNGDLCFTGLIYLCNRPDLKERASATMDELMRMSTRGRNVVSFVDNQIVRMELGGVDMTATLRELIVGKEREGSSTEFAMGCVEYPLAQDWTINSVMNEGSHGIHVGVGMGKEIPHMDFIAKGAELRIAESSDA
The experiment in a line: CgnA present with CgnC, CgnB titrated.

The target of assay [2] is T3, CgnE (Chondromyces crocatus CM c5).
T3 chain: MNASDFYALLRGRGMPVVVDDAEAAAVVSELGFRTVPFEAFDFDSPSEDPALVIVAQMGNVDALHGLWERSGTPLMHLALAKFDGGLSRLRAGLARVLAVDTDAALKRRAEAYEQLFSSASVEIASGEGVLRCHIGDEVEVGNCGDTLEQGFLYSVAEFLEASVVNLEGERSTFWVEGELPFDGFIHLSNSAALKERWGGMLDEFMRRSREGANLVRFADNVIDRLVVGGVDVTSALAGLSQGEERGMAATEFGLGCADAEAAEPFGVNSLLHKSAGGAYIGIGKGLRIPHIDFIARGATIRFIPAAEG
The experiment in a line: MST.

The target in assay [3] is T3, CgnE. The experiment in a line: CgnE titrated.
Assay [4] deals with T4, CgnE in the presence of CgnA (400 µM) (Chondromyces crocatus CM c5).
T4 chain: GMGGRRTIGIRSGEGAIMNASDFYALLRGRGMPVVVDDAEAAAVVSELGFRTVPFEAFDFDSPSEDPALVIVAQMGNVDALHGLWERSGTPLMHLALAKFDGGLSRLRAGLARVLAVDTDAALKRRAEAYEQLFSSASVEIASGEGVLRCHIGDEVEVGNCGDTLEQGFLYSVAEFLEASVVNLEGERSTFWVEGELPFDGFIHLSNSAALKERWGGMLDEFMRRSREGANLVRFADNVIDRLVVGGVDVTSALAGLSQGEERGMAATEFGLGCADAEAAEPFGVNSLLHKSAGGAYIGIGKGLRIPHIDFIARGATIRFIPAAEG
The experiment in a line: CgnA present with CgnC, CgnE titrated.

The target of assay [5] is T3, CgnE. The experiment in a line: MST; CgnA at constant high concentration.
For the next assay, the target named is T5, CgnB (Chondromyces crocatus CM c5).
T5 chain: T2 chain
In words: MST.

As usually defined, the Kd is the constant that tells how readily two partners part at equilibrium.

B1: CgnB in the presence of CgnA (400 µM) (complex)
chain: T2 chain
modifications: sequence from Supplementary Table 8 (the excerpt mark inside it is read as contiguous); N-terminal GA is a cloning remnant; dimer by size-exclusion chromatography
In turn, B1 displayed a dissociation constant Kd in the assay with CgnC of 110 nM.

B2: CgnC (enzyme)
chain: T1 chain
modifications: sequence from Supplementary Table 8 (the excerpt mark inside it is read as contiguous); N-terminal GA is a cloning remnant; dimer by size-exclusion chromatography
Consider B2, for which the equilibrium dissociation constant (Kd) in assay [1] is 110 nM; with CgnE [2], 1100 nM; in the assay with CgnE [3] it was 1100 nM; in assay [4], 900 nM; with CgnE [5], 900 nM.

B3: CgnA leader peptide (CgnA^LP) (peptide)
chain: MKKTIKQISAGDRSKKGN
For the molecule B3, the dissociation constant (Kd) in the assay with CgnB was 78200 nM.

The values are drawn from PMC10070186 (2023).
